B1: ATL3 (parent)
chain: QELEEEIKELYENFCKHNGSKNVF

Variants of: B1
Assay: protein stability index of a GFP-peptide fusion (GPS, HEK-293T) (PSI 1-6); higher = more stable
Conditions: c terminus: a fixed tail appended
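Note: lentivirally expressed fusions sorted by FACS into six bins by GFP to DsRed ratio, PSI derived from sequencing read proportions per bin multiplied by bin number.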

Variant	protein stability index
QELEEEIKELYENFCKPNGSKNVF [H17P]	3.34
QELEEEIKELYENFCKRNGSKNVF [H17R]	2.6
QELEEEIKELYENFCKWNGSKNVF [H17W]	2.46
QELEEEIKELYENFCKQNGSKNVF [H17Q]	2.44
QELEEEIKELYENFCKYNGSKNVF [H17Y]	2.42
QELEEEIKELYENFCKTNGSKNVF [H17T]	2.63
QELEEEIKELYENFCKSNGSKNVF [H17S]	2.62
QELEEEIKELYENFCKVNGSKNVF [H17V]	2.72
QELEEEIKELYENFCKHNGSGNVF [K21G]	2.49
QELEEEIKELYENFCKHNGSSNVF [K21S]	1.57
QELEEEIKELYENFCKHNGSCNVF [K21C]	2.1
QELEEEIKELYENFCKHNGSINVF [K21I]	2.12
QELEEEIKELYENFCKHNGSLNVF [K21L]	2.15
QELEEEIKELYENFCKHNGSRNVF [K21R]	2.12
QELEEEIKELYENFCKHNGSYNVF [K21Y]	1.55
QELEEEIKELYENFCKHNGSFNVF [K21F]	1.65
QELEEEIKELYENFCKHNGSENVF [K21E]	1.96
QELEEEIKELYENFCKHNGSMNVF [K21M]	1.85
QELEEEIKELYENFCKHNGSDNVF [K21D]	2.11
QELEEEIKELYENFCKHNGSQNVF [K21Q]	2.55
QELEEEIKELYENFCKHNGSANVF [K21A]	2.25
QELEEEIKELYENFCKHNGSWNVF [K21W]	1.81
QELEEEIKELYENFCKHNGSNNVF [K21N]	2.42
QELEEEIKELYENFCKHNGSHNVF [K21H]	2.16

Variant	protein stability index
QELEEEIKELYENFCKHNGSPNVF [K21P]	2.37
QELEEEIKELYENFCKHNGSVNVF [K21V]	1.82
QELEEEIKELYENFCKHNGSTNVF [K21T]	2.08
QELEEEIKELYENFCKHWGSKNVF [N18W]	2.85
QELEEEIKELYENFCKHMGSKNVF [N18M]	2.69
QELEEEIKELYENFCKHDGSKNVF [N18D]	2.28
QELEEEIKELYENFCKHLGSKNVF [N18L]	3.23
QELEEEIKELYENFCKHSGSKNVF [N18S]	2.42
QELEEEIKELYENFCKHCGSKNVF [N18C]	2.75
QELEEEIKELYENFCKHKGSKNVF [N18K]	2.55
QELEEEIKELYENFCKHAGSKNVF [N18A]	2.24
QELEEEIKELYENFCKHEGSKNVF [N18E]	2.36
QELEEEIKELYENFCKHTGSKNVF [N18T]	2.6
QELEEEIKELYENFCKHHGSKNVF [N18H]	2.94
QELEEEIKELYENFCKHIGSKNVF [N18I]	2.04
QELEEEIKELYENFCKHRGSKNVF [N18R]	2.86
QELEEEIKELYENFCKHYGSKNVF [N18Y]	2.37
QELEEEIKELYENFCKHVGSKNVF [N18V]	2.58
QELEEEIKELYENFCKHPGSKNVF [N18P]	2.72
QELEEEIKELYENFCKHFGSKNVF [N18F]	2.3
QELEEEIKELYENFCKHGGSKNVF [N18G]	2.34
QELEEEIKELYENFCKHQGSKNVF [N18Q]	2.68
QELEEEIKELYENFCKHNGSKIVF [N22I]	2.48
QELEEEIKELYENFCKHNGSKDVF [N22D]	1.91

Variant	protein stability index
QELEEEIKELYENFCKHNGSKHVF [N22H]	2.3
QELEEEIKELYENFCKHNGSKEVF [N22E]	2.38
QELEEEIKELYENFCKHNGSKFVF [N22F]	2.59
QELEEEIKELYENFCKHNGSKCVF [N22C]	2.34
QELEEEIKELYENFCKHNGSKKVF [N22K]	3.17
QELEEEIKELYENFCKHNGSKAVF [N22A]	2.96
QELEEEIKELYENFCKHNGSKGVF [N22G]	2.28
QELEEEIKELYENFCKHNGSKLVF [N22L]	2.57
QELEEEIKELYENFCKHNDSKNVF [G19D]	2.46
QELEEEIKELYENFCKHNCSKNVF [G19C]	2.31
QELEEEIKELYENFCKHNQSKNVF [G19Q]	2.73
QELEEEIKELYENFCKHNMSKNVF [G19M]	2.46
QELEEEIKELYENFCKHNRSKNVF [G19R]	2.54
QELEEEIKELYENFCKHNSSKNVF [G19S]	3.18
QELEEEIKELYENFCKHNHSKNVF [G19H]	2.87
QELEEEIKELYENFCKHNASKNVF [G19A]	2.59
QELEEEIKELYENFCKHNKSKNVF [G19K]	2.4
QELEEEIKELYENFCKHNISKNVF [G19I]	2.99
QELEEEIKELYENFCKHNESKNVF [G19E]	2.11
QELEEEIKELYENFCKHNYSKNVF [G19Y]	2.85
QELEEEIKELYENFCKHNPSKNVF [G19P]	3.03
QELEEEIKELYENFCKHNTSKNVF [G19T]	2.25
QELEEEIKELYENFCKHNFSKNVF [G19F]	2.65
QELEEEIKELYENFCKHNVSKNVF [G19V]	2.35

Variant	protein stability index
QELEEEIKELYENFCKHNLSKNVF [G19L]	2.55
QELEEEIKELYENFCKHNWSKNVF [G19W]	1.91
QELEEEIKELYENFCKHNNSKNVF [G19N]	2.69
QELEEEIKELYENFCKHNGNKNVF [S20N]	2.48
QELEEEIKELYENFCKHNGYKNVF [S20Y]	2.29
QELEEEIKELYENFCKHNGCKNVF [S20C]	2.28
QELEEEIKELYENFCKHNGDKNVF [S20D]	1.97
QELEEEIKELYENFCKHNGRKNVF [S20R]	3.77
QELEEEIKELYENFCKHNGQKNVF [S20Q]	2.45
QELEEEIKELYENFCKHNGEKNVF [S20E]	2.04
QELEEEIKELYENFCKHNGFKNVF [S20F]	2
QELEEEIKELYENFCKHNGTKNVF [S20T]	2.7
QELEEEIKELYENFCKHNGPKNVF [S20P]	3.46
QELEEEIKELYENFCKHNGKKNVF [S20K]	3.17
QELEEEIKELYENFCKHNGGKNVF [S20G]	2.48
QELEEEIKELYENFCKHNGLKNVF [S20L]	2.41
QELEEEIKELYENFCKHNGIKNVF [S20I]	2.54
QELEEEIKELYENFCKHNGVKNVF [S20V]	2.93
QELEEEIKELYENFCKHNGMKNVF [S20M]	2.24
QELEEEIKELYENFCKHNGAKNVF [S20A]	2.66
QELEEEIKELYENFCKHNGWKNVF [S20W]	2.16
QELEEEIKELYENFCKHNGHKNVF [S20H]	2.59
